The values below come from paper PMC5473857.

The target in this test is FtsZ-F268C labeled with fluorescein 5-maleimide (donor) or tetramethylrhodamine 5-maleimide (acceptor) (E. coli) (UniProt P0A9A6).

Turning to “N-terminally truncated ZipA (26-328) from E. coli (from UniProt P77173 26-328) (domain or fragment)”, the FRET assay of subunit exchange of FtsZ protofilaments at steady state with ZipA, pH 6.5: reaction time τ (13.1 s for FtsZ alone) turned out to be 25.2 s.
